In patent US9555076B2, “Neuregulin based methods and compositions for treating cardiovascular diseases” (Zensun (Shanghai) Science & Technology, Co., Ltd., priority 2002, dated 2017):
Where “and” joins values, the source holds several entries; their conditions need not be identical. Equal entries are not always repeated.

Columns and labels:
[1] = test system: toxic myocarditis caused by Adriamycin in rat; assay: Survival rate, Adriamycin caused toxic myocarditis rat model; type: in vivo, SD rat; conditions: Adriamycin 3.3 mg/kg iv once every week × 4, 5 weeks later
Description: rhNRG-1β was injected into the tail vein within 24 hours after the first injection of Adriamycin, the injection of rhNRG-1 β was carried out once daily for 10 days. Dosage was adjusted according to the body weight, volume of the drug administered was 0.2 ml/100 g.
Based on the <<Guidance Principle of New Drug Preclinical Experiment>>, 3.3 mg/kg of Adriamycin was injected into the tail vein, once per week for consecutive 4 injections, establishing Adriamycin caused toxic myocarditis rat model.
(§1) rhNRG-1 β was injected into the tail vein within 24 hours after the first injection of Adriamycin. During the experiment, animal survival was dynamically monitored, heart function indexes (maximal rate of pressure increase within left ventricle, […], maximal rate of pressure decrease within left ventricle, −dp/dt, systolic end pressure of left ventricle LVPmax, diastolic end pressure of left ventricle LVPmin) were monitored at the 5th week. Section was made from the heart tissue and pathological changes examined.
Situation of survival was recorded weekly and the survival rate of the various experimental groups was calculated. Survival rate (%)=survival animal number/number of experimental animals×100.

[2] = test system: toxic myocarditis caused by Adriamycin in rat; assay: Myocardial pathologic scoring, Adriamycin rat model; type: in vivo, SD rat; conditions: Adriamycin 3.3 mg/kg iv weekly × 4, 5 weeks later
Description: (§2) Heart was extirpated after thoracotomy (auricle should be reserved), the heart weight was measured after dried with absorbent paper, ratio of heart weight/body weight calculated; outer diameter of the heart was measured at ½ site of the vertically standing heart; medium part of the left ventricle was crosswise cut open, maximal thickness of free wall of the left ventricle measured; the heart was fixed with 10% formaldehyde, paraffin embedded and HE stained, observation of the myocardial structure carried out under optic microscope, give out pathologic score.
Scoring could be performed between grade 1 and grade 2 or between grade 2 and grade 3, e.g. grade 1.5, grade 2.5 etc. 6.3.3.3 Determination of Hemodynamics Index

[3] = test system: toxic myocarditis caused by Adriamycin in rat; assay: Heart size (heart weight/body weight, wall thickness), Adriamycin rat model; type: in vivo, SD rat; conditions: Adriamycin 3.3 mg/kg iv once every week × 4, 5 weeks later
Description: as §2

[4] = test system: toxic myocarditis caused by Adriamycin in rat; assay: Hemodynamics index, Adriamycin rat model; type: in vivo, SD rat; conditions: 5 weeks later
Description: as §1
Hemodynamics index such as carotid artery pressure, intra-ventricular pressure. dp/dt was measured with six lead physiology recorder. Major procedure: separate the right carotid artery, ligate its distal end and block its proximal end with arterial clamps, 20 G arteriovenous indwelling needle was inserted into the carotid artery, took out the medal stylet, loosened the artery clamps, push the plastic trocar further into appropriate depth, indwelled for 10 minutes, observed the wave style recorded by the physiology recorder, after it was stable, then recorded the carotid artery pressure and push the trocar further into the left ventricle, kept in place for 15 minutes, after it was stable, then recorded the dp/dt, −dp/dt, LVPmax and LVPmin.

[5] = test system: toxic myocarditis caused by Adriamycin in rat; assay: Serum troponin T (cTnT) level, Adriamycin rat model; type: in vivo, SD rat; conditions: Adriamycin 3.3 mg/kg iv once every week × 4, 5 weeks later
Description: 2 ml of arterial blood was withdrawn, serum extracted, frozen and stored at −20° C., determination of serum cTnT content was performed with electrochemistry irradiate method submitted to be carried out by Clinical Laboratory of Zhong Shan Hospital.

Rhesus = Rhesus long-term toxicity study, 3 weeks iv plus 3 weeks convalescence; conditions: for heart rate in conscious animals (electrocardiography): every drug taken group
[6] = rat, Adriamycin 3.3 mg/kg iv once every week × 4
[7] = survived rat, Adriamycin 3.3 mg/kg iv weekly × 4

Molecule: COc1cccc2c1C(=O)c1c(O)c3c(c(O)c1C2=O)C[C@@](O)(C(=O)CO)C[C@@H]3O[C@H]1C[C@H](N)[C@H](O)[C@H](C)O1 [Adriamycin, reference compound]
- survival rate [1]: 15%
- relative morbidity rate [2]: 100%
- Heart weight/body weight [3]: 0.0031 ± 0.0001^
- heart circumference [3]: 30.6 ± 0.1 mm
- thickness of left ventricular wall [3]: 1.73 ± 0.16^ mm
- LVPmax [4, 6]: 106.1 ± 21.2 mmHg
- dp/dt [4, 6]: 2674 ± 446 mmHg/s
- LVPmin ([4]; rat, Adriamycin 3.3 mg/kg iv once every week × 4, in mmHg): −10.0 ± 4.7
- −dp/dt ([4]; rat, Adriamycin 3.3 mg/kg iv once every week × 4, in mmHg/s): −2141 ± 596
- LVPmax as % of the normal value [4, 7]: 58%
- LVPmin as % of the normal value [4, 7]: 37%
- dp/dt as % of the normal value [4, 7]: 43%
- −dp/dt as % of the normal value [4, 7]: 47%
- cTnT [5]: 0.2 ng/mL and 0.205 ± 0.072 ng/mL

B1: rhNRG-1 β: Recombinant human neuregulin fragment of 61 amino acid (SEQ ID NO:4), 3 disulfide bonds, expressed in E. coli (protein, listed as Homo sapiens)
chain: SHLVKCAEKEKTFCVNGGECFMVKDLSNPSRYLCKCPNEFTGDRCQNYVMASFYKAEELYQ
modifications: Human neuregulin beta-2 fragment
- bone marrow smear (Rhesus; 7.5, 15, 75 μg/kg/d iv 3 weeks): No significant toxic pathologic changes
- echocardiogram (Rhesus; 7.5, 15, 75 μg/kg/d iv 3 weeks): no significant abnormality in echocardiogram
- fundus examination (Rhesus; 7.5, 15, 75 μg/kg/d iv 3 weeks): No abnormal changes
- hematological, biochemistry examination, urine and fecal testing (Rhesus; 7.5, 15, 75 μg/kg/d iv 3 weeks): no significant toxicological changes
- organ weight (Rhesus; 7.5, 15, 75 μg/kg/d iv 3 weeks): No abnormal changes in organ weight
- body temperature (Rhesus; all animals, prior to and after the drug administration): no significant changes of body temperature
- site of drug injection (Rhesus; drug taken groups): mild paleness, hardening of regional skin and vessels
- general symptoms, gastrointestinal (Rhesus; each drug taken group, 1 week after the beginning of drug administration): Vomiting, nausea and salivation occurred in part of the animals
- heart rate in conscious animals (electrocardiography) (Rhesus; 3-week of drug administration): significant reduction of heart rate
- heart rate in conscious animals (electrocardiography) (Rhesus; 10-day of drug administration): no significant deceleration of heart rate
- myocardium pathohistology (Rhesus; high dosage 75 μg/kg/d iv 3 weeks): could cause vacuole in the cytoplasma of myocardium
- food ingestion (Rhesus; high dosage group 75 μg/kg/d): reduced significantly
- body weight (Rhesus; high dosage group 75 μg/kg/d, self-comparison prior to and after drug): lowered markedly
- recovery of hydrocephalus (Rhesus; high dosage group, 3 weeks after drug withdrawal): did not recover entirely
- dosage level that did not cause pericardial effusion and hydrocephalus (Rhesus; iv daily 3 weeks, 3-week's convalescent period): 7.5 µg/kg/day
